To fix the notation:
B1: Human wild-type adenosine deaminase (ADA) [human] / A2AR-Nluc-spacer (human adenosine receptor fused to NanoLuc on the N-terminal end, with spacer) [human] (parent)
chain 1: MAQTPAFDKPKVELHVHLDGSIKPETILYYGRRRGIALPANTAEGLLNVIGMDKPLTLPDFLAKFDYYMPAIAGCREAIKRIAYEFVEMKAKEGVVYVEVRYSPHLLANSKVEPIPWNQAEGDLTPDEVVALVGQGLQEGERDFGVKARSILCCMRHQPNWSPKVVELCKKYQQQTVVAIDLAGDETIPGSSLLPGHVQAYQEAVKSGIHRTVHAGEVGSAEVVKEAVDILKTERLGHGYHTLEDQALYNRLRQENMHFEICPWSSYLTGAWKPDTEHAVIRLKNDQANYSLNTDDPLIFKSTLDTDYQMTKRDMGFTEEEFKRLNINAAKSSFLPEDEKRELLDLLYKAYGMPPSASAGQNL
chain 2: MPIMGSSVYITVELAIAVLAILGNVLVCWAVWLNSNLQNVTNYFVVSLAAADIAVGVLAIPFAITISTGFCAACHGCLFIACFVLVLTQSSIFSLLAIAIDRYIAIRIPLRYNGLVTGTRAKGIIAICWVLSFAIGLTPMLGWNNCGQPKEGKNHSQGCGEGQVACLFEDVVPMNYMVYFNFFACVLVPLLLMLGVYLRIFLAARRQLKQMESQPLPGERARSTLQKEVHAAKSLAIIVGLFALCWLPLHIINCFTFFCPDCSHAPLWLMYLAIVLSHTNSVVNPFIYAYRIREFRQTFRKIIRSHVLRQQEPFKAAGTSARVLAAHGSDGEQVSLRLNGHPPGVWANGSAPHPERRPNGYALGLVSGGSAQESQGNTGLPDVELLSHELKGVCPEPPGLDDPLAQDGAGVS

The experiment covers variants of B1. Kind of experiment: NanoBRET between mixed cells (A2AR-Nluc-spacer cells + CD26-YFP cells bridged by ADA). The note with it: ADA at 1 μg/ml, 10 min incubation in HBSS without shaking, HEK-293T cells, untreated (0) control est. 4.6 mBU, parent: 35, read off a plot.
Regarding chain 1 L62A, the response is 6.7 mBU.
Regarding chain 1 L58A, the response worked out at 7.3 mBU.

The record behind these values is paper PMC5818423.
